Data published in patent US20220389120A1 (published 2022).
Values belong to the binder of their own block, whether it stands above or below them.

Assays:
[1] = target: T1, recombinant human Ang2 (Biolegend) (human, UniProt O15123 19-496); test: Ang2-Tie2 blocking ELISA; Test 3
T1 chain: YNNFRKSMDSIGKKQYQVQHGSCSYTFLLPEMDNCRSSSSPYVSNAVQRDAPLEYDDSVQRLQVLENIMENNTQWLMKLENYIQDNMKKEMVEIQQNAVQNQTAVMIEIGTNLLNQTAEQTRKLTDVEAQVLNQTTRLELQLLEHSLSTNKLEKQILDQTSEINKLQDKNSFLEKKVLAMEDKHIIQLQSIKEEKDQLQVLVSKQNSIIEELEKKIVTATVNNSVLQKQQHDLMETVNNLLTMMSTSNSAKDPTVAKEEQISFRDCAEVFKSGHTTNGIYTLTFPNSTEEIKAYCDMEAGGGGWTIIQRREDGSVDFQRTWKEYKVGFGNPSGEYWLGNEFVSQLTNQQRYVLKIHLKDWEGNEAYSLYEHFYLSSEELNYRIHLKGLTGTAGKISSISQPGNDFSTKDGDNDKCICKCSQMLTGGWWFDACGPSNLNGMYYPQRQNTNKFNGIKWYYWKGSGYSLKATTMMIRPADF

[2] = target: T1, recombinant human Ang2 (Biolegend); test: ELISA
PD-1 = PD-1 (UniProt Q15116 25-167); test: PD-1 blocking assay
Sequence of PD-1 (Q15116 25-167): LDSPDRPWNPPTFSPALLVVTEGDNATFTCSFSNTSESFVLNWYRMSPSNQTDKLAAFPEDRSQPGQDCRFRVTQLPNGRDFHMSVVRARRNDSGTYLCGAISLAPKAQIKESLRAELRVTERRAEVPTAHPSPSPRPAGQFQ

[3] = target: T1, recombinant human Ang2 (Biolegend); test: Ang2-Tie2 blocking ELISA; Test 2
[4] = target: T1, recombinant human Ang2 (Biolegend); test: Ang2-Tie2 blocking ELISA; Test 1

- IC50 [1]: 0.1 nM
B1: ZA2-ls (protein)
chain: SDTGRPFVEMYSEIPEIIHMTEGRELVIPCRVTSPNITVTLKKFPLDTLIPDGKRIIWDSRKGFIISNATYKEIGLLTCEATVNGHLYKTNYLTHRQTNTIIDVVLSPSHGIELSVGEKLVLNCTARTELNVGIDFNWEYPSSKHQHKKLVNRDLKTQSGSEMKKFLSTLTIDGVTRSDQGLYTCAASSGLMTKKNSTFVRVHEKESKYGPPCPPCPAPEFLGGPSVFLFPPKPKDTLMISRTPEVTCVVVDVSQEDPEVQFNWYVDGVEVHNAKTKPREEQFNSTYRVVSVLTVLHQDWLNGKEYKCKVSNKGLPSSIEKTISKAKGQPREPQVYTLPPSQEEMGGAQTNFMPMDDLEQRLYEQFILQQGLETKNQVSLTCLVKGFYPSDIAVEWESNGQPENNYKTTPPVLDSDGSFFLYSRLTVDKSRWQEGNVFSCSVMHEALHNHYTQKSLSLSLGK

- EC50 [2]: 0.211 µg/mL
- IC50 (PD-1): 0.272 nM
B2: GS01-A (other)
heavy: QVQLVQSGAEVKKPGASVKVSCKASGYTFTSYYIHWVRQAPGQGLEWMGWIFPGSGNSKYNENFKGRVTLTADTSTSTVYMELSSLRSEDTAVYYCASETYDYGDYWGQGTLVTVSSASTKGPSVFPLAPCSRSTSESTAALGCLVKDYFPEPVTVSWNSGALTSGVHTFPAVLQSSGLYSLSSVVTVPSSSLGTKTYTCNVDHKPSNTKVDKRVESKYGPPCPPCPAPEFLGGPSVFLFPPKPKDTLMISRTPEVTCVVVDVSQEDPEVQFNWYVDGVEVHNAKTKPREEQFNSTYRVVSVLTVLHQDWLNGKEYKCKVSNKGLPSSIEKTISKAKGQPREPQVYTLPPSQEEMGGAQTNFMPMDDLEQRLYEQFILQQGGGGSGGGGSGGGGSGGGGSTNFMPMDDLEQRLYEQFILQQGLETKNQVSLTCLVKGFYPSDIAVEWESNGQPENNYKTTPPVLDSDGSFFLYSRLTVDKSRWQEGNVFSCSVMHEALHNHYTQKSLSLSLGKGGGGSGGGGSGGGGSGGGGSEVQLVESGGGLVQPGGSLRLSCAASGFTISDYWIHWVRQAPGKGLEWVAGITPAGGYTYYADSVKGRFTISADTSKNTAYLQMNSLRAEDTAVYYCARFVFFLPYAMDYWGQGTLVTVSSGGGGSGGGGSGGGGSGGGGSDIQMTQSPSSLSASVGDRVTITCRASQDVSTAVAWYQQKPGKAPKLLIYSASFLYSGVPSRFSGSGSGTDFTLTISSLQPEDFATYYCQQGYGNPFTFGQGTKVEIK
light: DIQMTQSPSFLSASVGDRVTITCKASQNVGTNVAWYQQKPGKAPKALIYSASYRYSGVPSRFSGSGSGTEFTLTISSLQPEDFATYYCQQYYSYPYTFGQGTKLEIKRTVAAPSVFIFPPSDEQLKSGTASVVCLLNNFYPREAKVQWKVDNALQSGNSQESVTEQDSKDSTYSLSSTLTLSKADYEKHKVYACEVTHQGLSSPVTKSFNRGEC

- IC50 [3]: 0.2 nM
- IC50 [1]: 0.03 nM
B3: ZA2-ld (protein)
chain: SDTGRPFVEMYSEIPEIIHMTEGRELVIPCRVTSPNITVTLKKFPLDTLIPDGKRIIWDSRKGFIISNATYKEIGLLTCEATVNGHLYKTNYLTHRQTNTIIDVVLSPSHGIELSVGEKLVLNCTARTELNVGIDFNWEYPSSKHQHKKLVNRDLKTQSGSEMKKFLSTLTIDGVTRSDQGLYTCAASSGLMTKKNSTFVRVHEKESKYGPPCPPCPAPEFLGGPSVFLFPPKPKDTLMISRTPEVTCVVVDVSQEDPEVQFNWYVDGVEVHNAKTKPREEQFNSTYRVVSVLTVLHQDWLNGKEYKCKVSNKGLPSSIEKTISKAKGQPREPQVYTLPPSQEEMGGAQTNFMPMDDLEQRLYEQFILQQGGGGSGGGGSGGGGSGGGGSTNFMPMDDLEQRLYEQFILQQGLETKNQVSLTCLVKGFYPSDIAVEWESNGQPENNYKTTPPVLDSDGSFFLYSRLTVDKSRWQEGNVFSCSVMHEALHNHYTQKSLSLSLGK

- IC50 [3]: 0.21 nM
- IC50 [4]: 0.19 nM
B4: A2Z-ld (Fc fusion)
chain: ESKYGPPCPPCPAPEFLGGPSVFLFPPKPKDTLMISRTPEVTCVVVDVSQEDPEVQFNWYVDGVEVHNAKTKPREEQFNSTYRVVSVLTVLHQDWLNGKEYKCKVSNKGLPSSIEKTISKAKGQPREPQVYTLPPSQEEMGGAQTNFMPMDDLEQRLYEQFILQQGGGGSGGGGSGGGGSGGGGSTNFMPMDDLEQRLYEQFILQQGLETKNQVSLTCLVKGFYPSDIAVEWESNGQPENNYKTTPPVLDSDGSFFLYSRLTVDKSRWQEGNVFSCSVMHEALHNHYTQKSLSLSLGKGGGGGAQSDTGRPFVEMYSEIPEIIHMTEGRELVIPCRVTSPNITVTLKKFPLDTLIPDGKRIIWDSRKGFIISNATYKEIGLLTCEATVNGHLYKTNYLTHRQTNTIIDVVLSPSHGIELSVGEKLVLNCTARTELNVGIDFNWEYPSSKHQHKKLVNRDLKTQSGSEMKKFLSTLTIDGVTRSDQGLYTCAASSGLMTKKNSTFVRVHEKLE
